Consider 1 molecule from patent US9315563B2, “Peptides that inhibit angiotensin converting enzyme and peptides with antioxidant activity purified from ovotransferrin and methods of producing and using the same” (The Governors of the University of Alberta, priority 2009, dated 2016).

The test is described as follows: ORAC-FL assay (oxygen radical absorbance capacity). Particulars: ovotransferrin hydrolysates. As to the method: Briefly, 80 mM AAPH and 200 nM fluorescein in 75 mM phosphate buffer at pH 7.4 were prepared for each experiment. For each run, 20 μL of antioxidant, and 80 μL of phosphate buffer (or 100 μL of Trolox standard solutions at final concentrations of 1 to 8 μM) were placed in wells of a 96-well microplate, followed by addition of 50 μL of the fluorescein solution. The mixture was preincubated for 15 min at 37° C. 50 μL of AAPH solution was added rapidly using a multichannel pipet. The microplate was immediately placed in a Fluoroskan Ascent microplate reader (Thermo Electron Corporation) with 485-P excitation and 538-P emission filters and the fluorescence recorded every minute for 100 min. All readings were recorded using Fluoroskan Ascent software. The area under the curve of fluorescence decay (AUC) was calculated using Graphpad prism software (trial version). Regression equations between AUC and antioxidant concentrations were calculated for all the samples. The ORAC value was calculated by dividing the slope of sample regression curve by the slope of Trolox regression curve. Final ORAC values were expressed as μmol of Trolox equivalent/mg of protein or peptide.

B1: Unhydrolyzed ovotransferrin: egg ovotransferrin, un-hydrolyzed parent protein (protein, UniProt P02789 20-705, looked up)
Ovotransferrin: APPKSVIRWCTISSPEEKKCNNLRDLTQQERISLTCVQKATYLDCIKAIANNEADAISLDGGQAFEAGLAPYKLKPIAAEVYEHTEGSTTSYYAVAVVKKGTEFTVNDLQGKTSCHTGLGRSAGWNIPIGTLLHRGAIEWEGIESGSVEQAVAKFFSASCVPGATIEQKLCRQCKGDPKTKCARNAPYSGYSGAFHCLKDGKGDVAFVKHTTVNENAPDQKDEYELLCLDGSRQPVDNYKTCNWARVAAHAVVARDDNKVEDIWSFLSKAQSDFGVDTKSDFHLFGPPGKKDPVLKDLLFKDSAIMLKRVPSLMDSQLYLGFEYYSAIQSMRKDQLTPSPRENRIQWCAVGKDEKSKCDRWSVVSNGDVECTVVDETKDCIIKIMKGEADAVALDGGLVYTAGVCGLVPVMAERYDDESQCSKTDERPASYFAVAVARKDSNVNWNNLKGKKSCHTAVGRTAGWVIPMGLIHNRTGTCNFDEYFSEGCAPGSPPNSRLCQLCQGSGGIPPEKCVASSHEKYFGYTGALRCLVEKGDVAFIQHSTVEENTGGKNKADWAKNLQMDDFELLCTDGRRANVMDYRECNLAEVPTHAVVVRPEKANKIRDLLERQEKRFGVNGSEKSKFMMFESQNKDLLFKDLTKCLFKVREGTTYKEFLGDKFYTVISSLKTCNPSDILQMCSFLEGK
The molecule B1 had an ORAC of 0.21 ± 0.04 µmol/mg.
